Experimental data from paper PMC6088136.

Target: GluA2 AMPAR (expressed in HEK293T) (UniProt P23819)
Test: SPR

Sequence of UniProt P23819 (P23819 25-883): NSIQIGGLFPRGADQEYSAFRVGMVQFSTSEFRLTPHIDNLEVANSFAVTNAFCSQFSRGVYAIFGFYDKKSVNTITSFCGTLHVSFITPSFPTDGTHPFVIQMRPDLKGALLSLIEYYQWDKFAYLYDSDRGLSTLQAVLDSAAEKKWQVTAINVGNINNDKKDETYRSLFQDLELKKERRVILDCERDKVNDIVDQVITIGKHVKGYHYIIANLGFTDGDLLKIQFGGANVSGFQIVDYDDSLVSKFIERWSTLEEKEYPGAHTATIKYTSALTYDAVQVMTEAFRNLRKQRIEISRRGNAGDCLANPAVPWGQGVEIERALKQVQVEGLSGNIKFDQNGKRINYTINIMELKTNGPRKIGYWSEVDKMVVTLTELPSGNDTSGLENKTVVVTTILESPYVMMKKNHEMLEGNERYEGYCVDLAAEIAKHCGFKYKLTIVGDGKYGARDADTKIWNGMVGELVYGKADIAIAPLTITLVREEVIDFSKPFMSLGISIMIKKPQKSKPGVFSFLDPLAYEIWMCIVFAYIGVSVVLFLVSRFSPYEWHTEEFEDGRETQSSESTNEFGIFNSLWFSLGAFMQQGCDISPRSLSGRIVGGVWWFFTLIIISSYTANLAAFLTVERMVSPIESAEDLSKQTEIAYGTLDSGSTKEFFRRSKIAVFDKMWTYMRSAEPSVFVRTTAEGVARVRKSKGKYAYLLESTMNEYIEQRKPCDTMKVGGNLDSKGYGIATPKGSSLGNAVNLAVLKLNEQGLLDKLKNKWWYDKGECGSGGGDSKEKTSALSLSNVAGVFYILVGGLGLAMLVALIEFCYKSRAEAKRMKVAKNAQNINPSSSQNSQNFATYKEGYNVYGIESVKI

With “Noelin1-3 (untagged, expressed in HEK293T) (natural protein)” as the substance, how does the Kd read?
Its Kd is 1 nM.

What about the koff of the same substance?
Its koff is 0.002 s⁻¹.
